The results in this text go back to paper PMC2188280 (The Journal of Experimental Medicine, 1987).

First the molecules themselves.
B1: lymphocyte function-associated antigen 3 (LFA-3) on human erythrocytes (ligand, human (endogenous in erythrocytes), UniProt P19256 29-250, looked up)
chain: FSQQIYGVVYGNVTFHVPSNVPLKEVLWKKQKDKVAELENSEFRAFSSFKNRVYLDTVSGSLTIYNLTSSDEDEYEMESPNITDTMKFFLYVLESLPSPTLTCALTNGSIEVQCMIPEHYNSHRGLIMYSWDCPMEQCKRNSTSIYFKMENDLPQKIQCTLSNPLFNTTSSIILTTCIPSSGHSRHRYALIPIPLAVITTCIVLYMNGILKCDRKPDRTNSN
B2: CD2, purified, detergent-solubilized (receptor, human (endogenous in Jurkat or SKW3), UniProt P06729 25-351, looked up)
chain: KEITNALETWGALGQDINLDIPSFQMSDDIDDIKWEKTSDKKKIAQFRKEKETFKEKDTYKLFKNGTLKIKHLKTDDQDIYKVSIYDTKGKNVLEKIFDLKIQERVSKPKISWTCINTTLTCEVMNGTDPELNLYQDGKHLKLSQRVITHKWTTSLSAKFKCTAGNKVSKESSVEPVSCPEKGLDIYLIIGICGGGSLLMVFVALLVFYITKRKKQRSRRNDEELETRAHRVATEERGRKPHQIPASTPQNPATSQHPPPPPGHRSQAPSHRPPPPGHRVQHQPQKRPPAPSGTQVHQQKGPPLPRPRVQPKPPHGAAENSLSPSSN

Assay [1] deals with B2. Kind of assay: flow cytometry on cells.
In assay [2] the target is B1. Kind of assay: flow cytometry on cells. A general note: In flow cytometry, cells or beads pass a laser one at a time.

Broadly, the IC50 is the concentration at which inhibition is half-maximal.

B1 registered a Ka in assay [1] of approximately 3e+07 M⁻¹.

As to B2, the IC50 in assay [2] is approximately 30 nM.
